Experiment: yeast display, Sf9 membrane polyspecificity reagent, FACS + sequencing; frameworks hold sequencing errors
Outline: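 A nanobody's polyreactivity label depends on the gate it was sorted from. Yeast display cells were stained with 10% biotinylated, detergent-solubilized Sf9 membrane reagent for 1 hour at 4 °C, enriched on streptavidin microbeads and sorted by FACS. The low and high (top ~1%) gates were set on anti-HA fluorescence for expression and streptavidin fluorescence for reagent binding.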
In the case of “QVQLVESGGGLVQAGGSLRLSCAASGRTFARYAMGWYRQAPGKERELVAAINRSGGSTYYADSVKGRFTISRDNAKNTVYLQMNSLKPEDTAVYYCNARDPYTYRYSYYYWGQGTQVTVSS”, the “polyreactivity (PSR sort gate)” value is reported as “high polyreactivity”.
For “QVQLVESGGGLVQAGGSLRLSCAASGRTFARYAMGWYRQAPGKERELVAAISSSGGSTYYADSVKGRFTISRDNAKNTVYLQMNSLKQEDTAVYYCVTYRNWWYDYWGQGTQVTVSS”, the “polyreactivity (PSR sort gate)” value was “high polyreactivity”.
With “QVQLVESGGGLVQAGGSLRLSCAASGRTFASNAMGWYRQAPGKERELVAAITRGGSTYYADSVKGRFTISRDNAKNTVYLQMNSLKPEDTAVYYCAADRWWYQNEVDYWGQGTQVTVSS” the “polyreactivity (PSR sort gate)” value was “low polyreactivity”.
With “QVQLVESGGGLVQAGGSLRLSCAASGRTFASYAMGWYRQAPGKERDFVASISRRGGSTNYADSVKGRFTISRDNAKNTVYLQMNSLIPEDNAVYYCAKRFTLPLSEYDYWGQGTQVTVSS” the “polyreactivity (PSR sort gate)” value was “high polyreactivity”.
For “QVQLVESGGGLVQAGGSLRLSCAASGRTFASYAMGWYRQAPGKERELVAGITSGGNTYYADSVKGRFTISRDNAKNTVYLQMNSLKPEDTAVYYCNAVRRVSSAGEFDYWGQGTQVTVSS”, the “polyreactivity (PSR sort gate)” value was “high polyreactivity”.
In the case of “QVQLVESGGGLVQAGGSLRLSCAASGRTFASYTMGWYRQAPGKERELVAAISRGGNTYYADSVKGRFTISRDNAKNTVYLQMNSLKPEDTAVYYCAATAVKYDRRFYYWGQGTQVTVSS”, the “polyreactivity (PSR sort gate)” value is reported as “high polyreactivity”.
With “QVQLVESGGGLVQAGGSLRLSCAASGRTFATYAMGWYRQAPGKEREFVAVIDGSGGSTYYADSVKGRFTISRDNAKNTVYLQMNSLKPEDTAVYYCAATSRRKVPNIRKSYGYWGQGTQVTVSS” the “polyreactivity (PSR sort gate)” value was “high polyreactivity”.
For “QVQLVESGGGLVQAGGSLRLSCAASGRTFATYVMGWYRQAPGKERELVAAISLSGGSTYYADSVKGRFTISRDNAKNTVFLQMNSVKPEDTAVYYCAISWVTSSDYWGQGTQVTVSS”, the “polyreactivity (PSR sort gate)” value was “low polyreactivity”.
In the case of “QVQLVESGGGLVQAGGSLRLSCAASGRTFAVNAMGWYRQAPGTERELVAAISLSGGRTYYADSVKGRFTISRDNAKNTVSLQMNSLKPEDTAVYYCAASRHFARHRGYYFRYDYWGQGTQVTVSS”, the “polyreactivity (PSR sort gate)” value is reported as “high polyreactivity”.
In the case of “QVQLVESGGGLVQAGGSLRLSCAASGRTFAVYAMGWYRQAPGKERELVAAISSTGGTYYADSVKGRFTISRDNAKNTVYLQMNSLKPEDTAVYYCAATFIQVVVNVQLYDYDYWGQGTQVTVSS”, the “polyreactivity (PSR sort gate)” value is reported as “low polyreactivity”.
In the case of “QVQLVESGGGLVQAGGSLRLSCAASGRTFAWYTMGWYRQAPGKERELVAAISGSGGSTYYADSVKGRFTISRDNAKNTVYLQMNSLKPEDTAVYYCSRRVDSYYGHTRYYYWGQGTQVTVSS”, the “polyreactivity (PSR sort gate)” value is reported as “high polyreactivity”.
In the case of “QVQLVESGGGLVQAGGSLRLSCAASGRTFAYHTMGWYRQAPGKERELVARINSGTSTYYADSVKGRFTISRDNEKNTVYLQMNSLKPEDTAVYYCAARGSESIRWYVGGRYGYWGQGTQVTVSS”, the “polyreactivity (PSR sort gate)” value is reported as “low polyreactivity”.
With “QVQLVESGGGLVQAGGSLRLSCAASGRTFAYNAMGWYRPAPGKEREFVAGISRSGGSTYYADSVKGRFTISRDNAKNTVYLQMNSLKPEDTAVYYCAAQFYALPNVGTKYYSWGQGTQVTVSS” the “polyreactivity (PSR sort gate)” value was “low polyreactivity”.
In the case of “QVQLVESGGGLVQAGGSLRLSCAASGRTFAYNAMGWYRQAPGKERELVADITSGGSTYYADSVKGRFTISRDNAKNTVYLQMNSLKPEDTAVYYCAAYPQFWYWDYNYWGQGTQVTVSS”, the “polyreactivity (PSR sort gate)” value is reported as “high polyreactivity”.
With “QVQLVESGGGLVQAGGSLRLSCAASGRTFAYNAMGWYRQAPGKERELVASITSGGSTNYADSVKGRFTISRDNAKNTVYLQKNSLKPEDTAVYYCNKDGKYHRVLYDYWGLGTQVTVSS” the “polyreactivity (PSR sort gate)” value was “low polyreactivity”.
In the case of “QVQLVESGGGLVQAGGSLRLSCAASGRTFAYNAMGWYRQAPGKERELVASITSGGSTNYADSVKGRFTISRDNAKNTVYLQMNSLKPEDTAVFYCNKDGKYHRVLYDYWGQGTQVTVSS”, the “polyreactivity (PSR sort gate)” value is reported as “low polyreactivity”.
With “QVQLVESGGGLVQAGGSLRLSCAASGRTFAYNTMGWYRQAPGKERELVAAITWSGGGTYYADSVKGRFTISRDNAKNTVYLQMNRLKPEDTAVYFCAVEYASPRARYRYYYWGQGTQVSVSS” the “polyreactivity (PSR sort gate)” value was “low polyreactivity”.
With “QVQLVESGGGLVQAGGSLRLSCAASGRTFAYNTMGWYRQAPGKERELVARINSGTSTYYADSVKGRFTISRDNAKNTVYLQMNRLKPEDTAVYYCNAYSWYGYDYWGQGTQVTVSS” the “polyreactivity (PSR sort gate)” value was “high polyreactivity”.
In the case of “QVQLVESGGGLVQAGGSLRLSCAASGRTFAYYAMGWYLQAPGKERELVAAISSGGGSTYYADSVKGRFTISRDNAKNTVYLQMNSLKPEDTAVYYCNKGFNYGGWFKKYGYWGQGTQVTVSS”, the “polyreactivity (PSR sort gate)” value is reported as “high polyreactivity”.
With “QVQLVESGGGLVQAGGSLRLSCAASGRTFCSYAMGWYRQAPGKERELVAAIRYRGGSTYYADSVKGRFTISRDNAKNTVDLQMNSLKPEDTAVYYCATNTWYYYQRMYYWGQGTQVTVSS” the “polyreactivity (PSR sort gate)” value was “high polyreactivity”.
In the case of “QVQLVESGGGLVQAGGSLRLSCAASGRTFDANAMGWYRPAPGKERELVAAISSDGSTNYADSVKGRFTISRDNAKNTVYLQMNSLKPEDTAVYYCATDGKPLIRYDYDYWGQGTQVTVSS”, the “polyreactivity (PSR sort gate)” value is reported as “high polyreactivity”.
For “QVQLVESGGGLVQAGGSLRLSCAASGRTFDFYAMGWYRQAPGKERELVAAISSRGGSTYYADSVKGRFTISRDNAKNTVYLQMNSLKAEDTAVYYCAKDLGYRGRYNYWGQGTQVTVSS”, the “polyreactivity (PSR sort gate)” value was “low polyreactivity”.
For “QVQLVESGGGLVQAGGSLRLSCAASGRTFDGYAMGWYSQAPGKERELVAALSSRSGRTYYADSVKGRFTISRDNAKNTVYLQMNSLKPEDTAGYYCAAVNKPRSEDYGYWGQGTQVTVSS”, the “polyreactivity (PSR sort gate)” value was “high polyreactivity”.
With “QVQLVESGGGLVQAGGSLRLSCAASGRTFDGYTLGGYRQAPGKERELVAAISTGGGSTYYADSVKGRFTISRDNAKNTVYVQLNSLKPEDTAVYDCAARGGSYSFRRYNYWGQGTQVTVSS” the “polyreactivity (PSR sort gate)” value was “high polyreactivity”.
In the case of “QVQLVESGGGLVQAGGSLRLSCAASGRTFDHYAMGWYRQAPGKERELVAAITSGGSTYYADSVKGRFTISRDNAKNTVYLQMNSLKPEDTAVYYCNKDSSFWGCYIAQVNERDYWGQGTQVTVSS”, the “polyreactivity (PSR sort gate)” value is reported as “low polyreactivity”.
In the case of “QVQLVESGGGLVQAGGSLRLSCAASGRTFDINDMGWYRQAPGKEREFVAAIDWSGGYTYYADSVKGRFIISRDNAKNTVYLQMNSQKPEDTAVYYCNARRKRSYDYWGQGTQGTVSS”, the “polyreactivity (PSR sort gate)” value is reported as “low polyreactivity”.
For “QVQLVESGGGLVQAGGSLRLSCAASGRTFDINTMGWYRQAPGKERELVARISGRGGSTYYADSVKGRFTISRDNAKNTVYLLMNSLKPEYTAVYYCNALGRSVLPQPIGDYWGQGTQVTVSS”, the “polyreactivity (PSR sort gate)” value was “high polyreactivity”.
With “QVQLVESGGGLVQAGGSLRLSCAASGRTFDIYAMGWYRQAPGKERELVAAISSGGSTYYADSVKGRFTISRDNAKNTVYLQMNRLKPEDTAVYYCAVRWYDQVSRRGIGYYWGQGTQVTVSS” the “polyreactivity (PSR sort gate)” value was “low polyreactivity”.
With “QVQLVESGGGLVQAGGSLRLSCAASGRTFDKYAMGWYRQAPGKERELVAAISYDAGRTYYADSVKGRFTISRDNAKNTVYLQMNSLKPEDTAVYYCNAVRFRGFGWGQGTQVTVSS” the “polyreactivity (PSR sort gate)” value was “high polyreactivity”.
In the case of “QVQLVESGGGLVQAGGSLRLSCAASGRTFDLYAMGWYRQAPGKERELVARITNIDDSTYYADSVKGRFTISRDNAKNTVYLQMNSLKPEDTAVYYCNAASYSRGPARYDYWGQGTQVTVSS”, the “polyreactivity (PSR sort gate)” value is reported as “high polyreactivity”.
For “QVQLVESGGGLVQAGGSLRLSCAASGRTFDSNAMGWYRQAPGKERELVAAISYSGGSTYYADSVKGRFTISRDNAKNTVYLQMNSLKPEDTAVYYCNAGDVHKKPARDYWGQGTQVTVSS”, the “polyreactivity (PSR sort gate)” value was “low polyreactivity”.
With “QVQLVESGGGLVQAGGSLRLSCAASGRTFDSYTMGWYRQAPGKERELVAAIRSSGGRTYADSVKGRFTISRDNAKNTVYLQMNSLKPEDTAVYYCAAARSYWAKYYYWGQGTQVTVSS” the “polyreactivity (PSR sort gate)” value was “high polyreactivity”.
For “QVQLVESGGGLVQAGGSLRLSCAASGRTFDVYAMGWYRQAPGKEMELVAAITRRGGSTYYADSVKGRFTISRDNAKNTVNLQMNRLKPEDTAVYYCSAAYSRGSGVGRYRLDYWGKGTQVTVSS”, the “polyreactivity (PSR sort gate)” value was “high polyreactivity”.
In the case of “QVQLVESGGGLVQAGGSLRLSCAASGRTFDVYAMGWYRQAPGKEREFVASITRSGASTYADSVKGRFTISRDNAKNTVYLQMNSLKPEDTAVYYCNAELDLDTGWDGFVAYDYWGQGTQVSVSS”, the “polyreactivity (PSR sort gate)” value is reported as “low polyreactivity”.
In the case of “QVQLVESGGGLVQAGGSLRLSCAASGRTFDVYAMGWYRQAPGKERELVAAITSGGSTYYADSVKGRFTISRDNAKNTVYLQMNSLKPEDTAVYYCAKASSATRYVQLRQDYDYWGQGTQVTVSS”, the “polyreactivity (PSR sort gate)” value is reported as “low polyreactivity”.
In the case of “QVQLVESGGGLVQAGGSLRLSCAASGRTFDVYAMGWYRQAPGKERELVAAITSGGSTYYADSVKGRFTISRDNAKNTVYLQMNSLKPEDTAVYYCATDVDKSLYDYWGQGTQVTVSS”, the “polyreactivity (PSR sort gate)” value is reported as “low polyreactivity”.
For “QVQLVESGGGLVQAGGSLRLSCAASGRTFDVYAMGWYRQAPGKERELVATIRSDGSTTYADSVKGRFTISRDNAKNTVYLQMTSLKPEDTAVYYCAADFRSGFSSSTTPVQSDWGQGTQVTVSS”, the “polyreactivity (PSR sort gate)” value was “low polyreactivity”.
For “QVQLVESGGGLVQAGGSLRLSCAASGRTFDVYAMGWYRQAPGKERELVATISYRSARTYYADSVKGRFTISRDNAKNTVYLQMNSLKPEDTAVYYCAAYFETWHGFGYWGQGTQVTVSS”, the “polyreactivity (PSR sort gate)” value was “high polyreactivity”.
In the case of “QVQLVESGGGLVQAGGSLRLSCAASGRTFDWNAMGWYRQAPGKERELVAAITYSGGGTYYADSVKGRFTISRDNAKNTVYLQMNSLKPEDTAVYYCAAGYPGTWSYYYWGQGTQVTVSS”, the “polyreactivity (PSR sort gate)” value is reported as “low polyreactivity”.
With “QVQLVESGGGLVQAGGSLRLSCAASGRTFDWYAMGWYRQAPGKERELVAVITGRGGSTYYADSVKGRFTISRDNAKNTVYLQMNSLKPEDTAVYYCAVDRLRYRLGFGFKFDYWGQGTQVTVSS” the “polyreactivity (PSR sort gate)” value was “low polyreactivity”.
With “QVQLVESGGGLVQAGGSLRLSCAASGRTFDYNAMGWYRQAPGKEREFVAAITKSGGSTNYADSVKGRFTISRDNEKNTVYLQMNSLKPEDTAVYYCNATYVVIHEYDYWGQGTQVTVSS” the “polyreactivity (PSR sort gate)” value was “low polyreactivity”.
For “QVQLVESGGGLVQAGGSLRLSCAASGRTFDYYAMGWYRQAPGKERELVAAISSSGGSTYYADSVKARFTISRDNAKNTVYLQMNSLKPEDTEVYYCNAYAYRFNHIHHIYTTVGEYWGQGTQVTVSS”, the “polyreactivity (PSR sort gate)” value was “high polyreactivity”.
With “QVQLVESGGGLVQAGGSLRLSCAASGRTFDYYAMGWYRQAPGKERELVAAITKDGGSTYYADSVKGRFTISRDNAKNTVYLQMNSLIPEDTAVYYCAADGPPQYYDPIHYDYWGQGTQVTVSS” the “polyreactivity (PSR sort gate)” value was “low polyreactivity”.
